Consider 3 molecules from patent publication US7718353B2, “Proteins, sensors, and methods of characterizing analytes using the same” (University of Maryland Baltimore County, priority 2003, dated 2010).

Numbering of substitutions follows the chain as printed. Numbers in names are those of the source. Read-outs that look alike come from different tables or passages of the source.

A short description of data set [1]: Reported (literature) binding of glutamine to GlnBP. The following applies: yielded by the reported ka and kd; read-out: dissociation constant. How it is done:
This figure seeks to illustrate two things. First, the fluorescence intensity of acrylodan (λmax=515 nm) decreased with increasing concentration of glutamine. Concurrently, the luminescence intensity of Ru remained constant at λmax=610 nm. Second, the standard solutions of glutamine (0.1 to 6.4 mM) were prepared in glutamine-free Dulbecco's modified Eagle media (DMEM), a commonly used media for tissue culture. The resulting solutions were then diluted 1000× with PBS and used in the assay. The submicromolar sensitivity of the protein for glutamine remained virtually unchanged from that observed with the acrylodan label alone, as shown in DATTELBAUM et al., Anal. Biochem., 291:89-95 (2001), which is incorporated by reference herein. […]
The apparent binding constants were calculated by fitting the experimental results to the binding isotherm (DATTELBAUM et al., Anal. Biochem., 291:89-95 (2001), which is incorporated by reference herein). The binding constants for the single-labeled and doubled-labeled GlnBP were calculated to be 0.23±0.01 μM and 0.28±0.03 μM, respectively. […] The binding constant of GBP for glucose was calculated to be 0.78±0.07 μM, which also agrees well with the reported value of 0.8 μM (HELLINGA et al., Trends Biotechnol., 16:183-189 (1998), which is incorporated by reference herein). […]

The conditions of data set [2]: cited from earlier work.
Data set [3] in a line: Fluorescence binding isotherm of labeled S179C GlnBP. The following applies: fit to binding isotherm, read-out: binding constant for glutamine. How it is done:
The emission spectra were recorded on a Varian Cary Eclipse fluorescence spectrophotometer (Varian Instruments, Walnut Creek, Calif.). All samples were measured in quartz cuvettes (Starna Cells, Inc., Atascadero, Calif.).
The apparent binding constants were calculated by fitting the experimental results to the binding isotherm (DATTELBAUM et al., Anal. Biochem., 291:89-95 (2001), which is incorporated by reference herein). The binding constants for the single-labeled and doubled-labeled GlnBP were calculated to be 0.23±0.01 μM and 0.28±0.03 μM, respectively. Both were in agreement with the reported value of 100-300 nM for the wild type (SOHANPAL et al., Sensors Actuators B, 11:547-552 (1993), which is incorporated by reference herein). While not wishing to be bound by theory, the reason for this agreement is believed to be that the position of the fluorophore is far from the binding site, consequently, the binding affinity is not greatly affected. The binding constant of GBP for glucose was calculated to be 0.78±0.07 μM, which also agrees well with the reported value of 0.8 μM (HELLINGA et al., Trends Biotechnol., 16:183-189 (1998), which is incorporated by reference herein).

The nature of data set [4]: Glutamine measurement in lymphoblast cell culture, GlnBP sensor versus YSI. To be noted: cell culture medium. How it is done: The cells used in the cell culture came from two different cell lines, GM010178 and GM14649, both lymphoblasts from […]. These cell lines were obtained commercially from Coriell Cell Repositories, and have been grown in a solution of 15% Fetal Bovine Serum in RPMI Medium 1640 with GlutaMAX™ (Gibco™, Grand Island, N.Y.). For the 100 mL cell culture, 50 mL of fresh medium was mixed with 50 mL of inoculum in a 250 mL polystyrene flask, and then incubated in a CO2 incubator (Precision Scientific, Chicago, Ill.) until the color of the medium turned from red to yellow. 1 mL of sample was taken from the culture every 2 h for analysis. […] The glutamine concentration was then measured with a YSI 2700 Chemistry Analyzer and concurrently with the glutamine biosensor by diluting a small volume of sample 1,000 times. […] One microliter of sample was taken each time and the glutamine concentration was measured with the present biosensor thereafter.
As in the determination of glucose, analysis of glutamine by the GlnBP sensor was compared to the YSI Chemistry Analyzer. […] The hydrogen peroxide that is released is detected at the platinum electrode. Since glutamate oxidase can also detect the glutamate that is already present in the media, the reading of the glutamine sensor is actually the sum of glutamine and glutamate in the media. […]

Data set [5] can be described thus: Stability and reproducibility of labeled binding proteins by binding assays. It counts as physicochemical. To be noted: 5 months after preparation. How it is done:
The stability of the binding proteins was determined by binding assays. The labeled binding proteins can be stored in phosphate buffer at 4° C. for at least 5 months. […] While not wishing to be bound by theory, factors that could have caused this change include fluorophore and protein. In any case, the recalibration of the biosensor during its use in fermentation or cell culture is unnecessary because fermentation or cell culture usually lasts from only several hours to a few days.

Data set [6] in a line: Steady-state emission intensity ratio (I515/I610) of Ru-GlnBP-Acr versus glutamine. It counts as binding. How it is done:
Steady-state emission spectra were recorded on a Varian Cary Eclipse spectrofluorimeter (Varin Instruments, Walnut Creek, Calif.). Time-resolved luminescence decays were measured on a frequency domain fluorimeter (ISS-Koala, Champaign, Ill.) with the following modifications. Blue LED LNG992CFBW (Panasonic, Secaucus, N.J.) driven by a current source was used as the excitation source. The modulation voltage was applied through bias T. The standard radiofrequency amplifier for the photomultiplier tubes was replaced with a ZHL-6A 1-circuits, Brooklyn, N.Y.) to enhance the low-frequency performance. The excitation light was filtered by 500-, 550-, and 650 FL07 short-wave pass filters (Andover, Salem, N.H.). The emission light was filtered by a 500 FH90 long-wave pass filter (Andover). Luminescence decay data were analyzed by nonlinear least-squares methods.
This figure seeks to illustrate two things. First, the fluorescence intensity of acrylodan (λmax=515 nm) decreased with increasing concentration of glutamine. Concurrently, the luminescence intensity of Ru remained constant at λmax=610 nm. Second, the standard solutions of glutamine (0.1 to 6.4 mM) were prepared in glutamine-free Dulbecco's modified Eagle media (DMEM), a commonly used media for tissue culture. The resulting solutions were then diluted 1000× with PBS and used in the assay. […]

B1: GlnBP-Acr: S179C variant of E. coli glutamine-binding protein labeled with acrylodan at cysteine 179 (protein, UniProt P0AEQ3 23-248, looked up, variant S179C)
Glutamine-binding periplasmic …: ADKKLVVATDTAFVPFEFKQGDKYVGFDVDLWAAIAKELKLDYELKPMDFSGIIPALQTKNVDLALAGITITDERKKAIDFSDGYYKSGLLVMVKANNNDVKSVKDLDGKVVAVKSGTGSVDYAKANIKTKDLRQFPNIDNAYMELGTNRADAVLHDTPNILYFIKTAGNGQFKAVGDCLEAQQYGIAFPKGSDELRDKVNGALKTLRENGTYNEIYKKWFGTEPK
modifications: acrylodan label at C179
B1: the values for the Kd in data set [1], in data set [3] (listed as single-labeled GlnBP) and in data set [3] were 163 nM, 230 ± 10 nM and 200 nM, respectively. Further, in data set [2] (reported, WEINER et al.), the “ka for the binding” value was 9.8e+07 M⁻¹ s⁻¹. Further, the “kd for the dissociation” value in data set [2] (reported, WEINER et al.) was 16 s⁻¹. Also, the “selectivity: response to glutamine versus glutamate” value in data set [4] is listed as “responsive to glutamine but not to glutamate”. In addition, the “change of calibration curve after storage” value in data set [5] is “underwent some changes in 5 months after preparation, but was still responsive to glutamine”.

B2: wild type: wild type glutamine-binding protein, literature dissociation constant (protein, UniProt P0AEQ3 23-248, looked up)
Glutamine-binding periplasmic …: B1 Glutamine-binding periplasmic … with C179S
For B2, the Kd in data set [2] (literature value, read-out: reported dissociation constant for the wild type) is 100 to 300 nM.

B3: Ru-GlnBP-Acr: S179C GlnBP labeled at the cysteine with acrylodan and at the N-terminal with ruthenium bis-(2,2′-bipyridyl)-1,10-phenanthroline-9-isothiocyanate (protein, UniProt P0AEQ3 23-248, looked up, variant S179C)
Glutamine-binding periplasmic …: B1 Glutamine-binding periplasmic …
modifications: acrylodan; N-terminal ruthenium complex label
notes: S179C GlnBP labeled at the cysteine with acrylodan and at the N-terminal with ruthenium bis-(2,2′-bipyridyl)-1,10-phenanthroline-9-isothiocyanate
Regarding B3, the Kd in data set [3] stood at 280 ± 30 nM; in data set [6] (from I515/I610 ratio, glutamine standards in DMEM diluted 1000× with PBS, 2.0 μM protein, read-out: apparent binding constant K′d for a single binding site) it was 720 ± 100 nM. In addition, the “interference of other DMEM components with glutamine binding” value in data set [6] (DMEM diluted 1000× with PBS) is recorded as “did not interfere with the binding of glutamine”.
